Assays:
[1] = molecular target: T1, soluble form of HEPSIN comprising the entire extracellular domain (human HEPSIN Arg45-Leu417, His-tagged) (human, UniProt P05981 45-417); test: Ki app, enzyme inhibition assay with chromogenic substrate S2366, fit to the tight binding inhibition equation
T1 construct: range 45-417; Under reducing SDS-PAGE it runs as a 20 kDa A-chain and a 30 kDa B-chain; also called soluble HEPSIN; recombinant soluble HEPSIN; not shown: His tag
Procedure: (§1) A soluble form of the bi-Kunitz inhibitor HAI-2 was used as a stop reagent for the pro-uPA activation assay. […] HAI-2 was incubated with 0.5 nM HEPSIN or 10 nM uPA for 30 min in Hepes buffer (20 mM Hepes, pH 7.5, 150 mM NaCl, 5 mM CaCl₂, 0.01% Triton X-100) at room temperature. The chromogenic substrates S2366 (for HEPSIN) or S2444 (for uPA) were added at a concentration corresponding to their respective Kₘ values, which were determined in separate experiments. After substrate addition, the increase in absorbance at 405 nm was measured on a kinetic microplate reader (Molecular Devices, Sunnyvale, Calif.). The Kᵢ^app values were determined by fitting the data to the equation for tight binding inhibition (22,23).

[2] = molecular target: T2, uPA (high molecular weight form) (UniProt P00749 21-431, limits assumed); test: Ki app, enzyme inhibition assay with chromogenic substrate S2444, fit to the tight binding inhibition equation
T2 construct: Bought reagent
Procedure: as §1

T1 sequence (P05981 45-417 limits assumed): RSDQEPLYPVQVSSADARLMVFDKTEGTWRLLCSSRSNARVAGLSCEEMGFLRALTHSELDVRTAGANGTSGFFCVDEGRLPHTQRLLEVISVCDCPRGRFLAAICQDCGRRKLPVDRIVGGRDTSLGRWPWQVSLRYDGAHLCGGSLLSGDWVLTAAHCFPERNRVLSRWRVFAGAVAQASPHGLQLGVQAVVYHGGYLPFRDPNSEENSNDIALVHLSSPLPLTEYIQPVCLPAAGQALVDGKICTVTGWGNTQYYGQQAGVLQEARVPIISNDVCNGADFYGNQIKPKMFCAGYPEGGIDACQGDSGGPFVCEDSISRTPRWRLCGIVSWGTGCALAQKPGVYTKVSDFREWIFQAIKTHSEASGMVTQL

B1: soluble form of hepatocyte growth factor activator inhibitor-2 (HAI-2) (other, UniProt O43291 28-197, looked up)
chain: ADRERSIHDFCLVSKVVGRCRASMPRWWYNVTDGSCQLFVYGGCDGNSNNYLTKEECLKKCATVTENATGDLATSRNAADSSVPSAPRRQDSEDHSSDMFNYEEYCTANAVTGPCRASFPRWYFDVERNSCNNFIYGGCRGNKNSYRSEEACMLRCFRQQENPPLPLGSK
notes: Called a soluble form
In the case of B1, the Ki [1] is reported as 0.26 nM and the Ki [2] is reported as over 1000 nM.
